Results reported in the DeepSol protein solubility set.

Test: soluble on expression in E. coli; label from the status in PepcDB or PDB records

Sequence	soluble on expression in E. coli
MSLDNLITIYDKNDANNLAEHLYDTQGLGALSDWLTATVSNKLNGAEIFQGTYSINGTNADLIVEGRIIQCYVDENRAKQRLRIYYAKTSVIGNTIEVKAEPIFNDIRKSVLNKYDSGTEKITATQAWQNAKVLAKPAIPSQFSFSSLVDTLANVKIEKANFLEFFGGKEGSILDRFHGEFLKDNNTLRHEKSLGTDHKIKAIYTKNLTGLDLEIDAQSVLVGVYPFISSSSEGEDEITLPEEVIFTDYVDDYPAGYVSFVDFKDKATDVATLREAAKDWLKTNIDKQKPQVSGSIELVPLRHQRGYEKFVDLEKVSMGDGVDVYHPQLKVNMSARIVEYTFNVLTNSYDKLVVGNVKTNFLENTENNVSNLINDEGHHHHHH	soluble
MHHHHHHSSGVDLGTENLYFQSNAMTAPSQVLKIRRPDDWHVHLRDGDMLKTVVPYTSEIYGRAIVMPNLASPITTVDAAIAYRQRILDAVPAGHDFTPLMTCYLTDSLDADELERGFHEGVFTAAKLYPANATTNSSHGVTSVDAIMPVLERMEKLGIPLLVHGEVTHADVDIFDREARFIDTVMEPLRQRLTALKVVFEHITTKDAAQYVRDGNDYLAATITPQHLMFNRNDMLVGGIRPHLYCLPILKRNIHQQALRELVASGFTRAFLGTDSAPHSRHRKETSCGCAGCFNAPSALGSYAAVFEEMNALAHFEAFCSLNGPQFYGLPMNTGWVELVRDEQQIPGNIALADDSLVPFLAGETVRWSVKK	soluble
GPGHMEGLRCVVLPEDLCHKFLQLAESNTVRGIETCGILCGKLTHNEFTITHVIVPKQSAGPDYCDMENVEELFNVQDQHDLLTLGWIHTHPTQTAFLSSVDLHTHCSYQLMLPEAIAIVCSPKHKDTGIFRLTNAGMLEVSACKKKGFHPHTKEPRLFSICKHVLVKDIKIIVLDLR	soluble
MAHHHHHHMTVNNSNNNNNGERLGSGTARLFVGQLNFDATEHDLRQIFSFYGHVIHTNVLRDADGKSTGSGFVTFRVTDEADFAIMSMHDRYNMGREKPLQVSYCRRSERISPFGYEHAMKLREKNTTNPPPPQPTSS	soluble
MNELFLSELKSADKDLLQKLVLIEEHVFADSAQEPVQTEASLDSLELIISQCIAIISEIESPLEKAEALLNELYFQHLFIDRYQTRWPISAYSVAKGLNQRAMSPVVKAALVKEIITACGFETDLVFIPNKIMVRLCCDEQYAIIFDAITGESLDWTELDVRLDELDGDPGEQELKAIDDSVALVEHLSALKNVLIHEQAFDKALTCVDVILSLNPDDPLQRRDRGFLLHQLDCFKVAVDDYRYFVEQCPKDPAAKILKIQLEKIDVGNNVLHLEHHHHHH	soluble
GKTFPSRAYIDGTLSARVIAHEFGHNLGLSHAKALDCGDASVSNNCSVIEYGDSYDVMGTPDMGYINTYYKERMGWLNDAESPNILTATQDGLYEIAEYETQDITQNIALKIPRGVNPNSGLKEWFYVEYRQAMGYDQFLDDRSYMLFRGDVTDGVIVRLVEEGAEESYILHMKPNSDYSQVYGRKDWKDTALPVGDSFTDP	not soluble
GPGSMLTGALRLSSHRVQDFIVTTCDKAFMLSSRTRLDKKTVETILLAGYSRIPVYLNDNRRHILGTLIVQSLVILCFTNPNKPPRAGEYPLLETLRLPASTTLYNSYLAFQKNSSNMAVVYDNCGVMVGLWTLTDLLCTLYNTSPAHEGSNTHRQELMVTLLESMKAMNAARRKAQGNVNSAIESEEFFVGGRKK	not soluble
MNASSAPQQQQQQQQPQQGQAPQQQQQGPPQHQYQQQRPFHGRVQNHMRGSGPFGNSNGYGRYTAPRGDQQHHDSTPLSSVSSRRVPLPPTSQHRASSNFNTTPSSTNLYIRGLMPNTNDDLLREMCSKYGNIASTKAIMDKATNNCKGYGFVDFESPQAAAAAVDGLNTEGVQAQMAKLQQQEQDPTNLYIANLPLDFTEQMLETELNKFGMVISTRILRTPDNQSRGVGFARMDSKEKCEVIISALNGGRFDTMSKEGPALLIKQADTGRKSKVGSTSRHPSFQQFSSLGGPTAFLNGQHSMNNPEMLQRMQYPQVYQSYYGYHPAAVYQQHYDVNSLASQMGGMHVGGGNPQANGGGDMYGAHMYGQNAGGQGGQGVGQGGQGGNQQFYNPNNGRNKKYFQPMNPQ	not soluble
MSLTPAPDLTLGTAVDWRFAATVGRRLARPGPPSTDYTRRQVIDELAGAATKAEPLVRQVTGLLTDGADDGRVPAARIVDRPEWIAAAAESMRVMMNGTERPRGFLTGRVTGAQTGAVLAYVSSGILGQYDPFATDRGAGAGCLLLVYPNVIAVERQLRIEPSDFRLWVCLHEVTHRVQFTANPWLPGYMSQALALLTRDTGDDLGQVLSRLADYARNRGNTASQADANSTGILGLVRAVQSEPQRQALDQLLVLGTLLEGHADHVMDAVGPMAVPSVATIRRRFDERRHRKQPPLQRLLRALLGLDAKLSQYTRGKAFVDQVVGRVGMARFNAVWTGPETLPLPVEIEEPQRWIDRVLEGHHHHHH	soluble
MGSDKIHHHHHHMPYTTYRQQAVDEQTLAQTELNQYIADQAQVIAPEEYTSVEINFYYHEIYISSQLIAQIAYDHNEFVTQRWLVLVNDKEEFRANTWAKCYRYICTHHKDGSLPVQERETPAATTGNEIMVQIADECENLGLELLEDGIYRGDQKLGKAGQTNGNWWFIRTDDATQQQRFCNSASDAMWLVSRAELPEYTDTLNEYLQYRPLEQMPSVELKHLLDSAELTAA	not soluble
MTKSILLVGVGGQGTILASKLLTMGLMEAGYDVKMSEIHGMSQRGGSVSSQVRYGDCVHSPVIEIGGADILVSFEKMEALRWFNYLKPEGKALVNNHRIDSMTVLIGGAEYQESDIDAELSRLNAKVINAADKAEELGNSKIMNVILLGCLVKSMQLESIDWEKIISENVKPKFVELNIKAFHEGMEMVSK	not soluble
MGSDKIHHHHHHMLSKLWKRQAPQMVGIDIGSHEIKAILLSKTADGYKIQNHASVPVRKGAVVDHDIRDTEAVIESLRQIRRGLPKSLKFAAVAVSGSAVMTKVIYMDAALNEEEMEAQIEIEADNLIPYSLDEVSIDFERLNPNITDPTKVNVLLSACRTENIDSRVDSLDAIELDVKVVDVEAYALGRSAELIYAQLPDGAKAKSIAMVDIGANMTTFSVVENGDTTFIREQAFGGELFTQSIVSFYGMPHDEAERAKISGQLPRNYMFEVLSPFQMQLLQQIKRTLQIYCTASGREKVDYIVLCGGTAKLEGMVELLTNELGTHTIVADPFQGCLHADDVMKGQLQPNISKYMVACGLALRSYAQWRT	not soluble
MSYNNSYDVIILAGGLSKRFGADKCCFEVNSKTMLDRLLEQFDNPIVVSRSPRRIKKGILVIEKGEYEGPVKGVREGLKYVRRDRVFITGCDFPFLIKNLVDYVCSKPYDIVIPFDHRPQPLLACYSTELLNKNIDKINGLVELIELSSSVYFIGTEELLKIDPFLYSLININSIIDLIYRPIRIKTKSNFILRLEHHHHHH	not soluble
GLIDAHGHVIGYGHSLLRVDLVNATSELDAVNRTISYAKDNPSMSWILGRGWNQVQWSNNSYPNAKSLDEAFPNKPVWLRRVDGHAGWANSKAMALAGITSASKAPVGGDIIKDKNGLPTGIFIDNAMTLITASITPPSPMEDKIALKRAMHSLASLGLTSVHDAGIEQKDIALYKTLASEGNMTIRINGMLYLPSTNWQQQLEQGPYRTEDEMFAVNSVKIQADGALGSRGASLINDYSDHSGHKGLLLHDKKSLQHYIDFAMNAGFQVNTHAIGDNANKLILDLYQQAIQKSQTKALRHRIEHAQVLRLEDISRFSSLNVIASMQATHATSDKNMAVTRLGGKRILGAYAWRKLLDSNTIIAAGSDFPVESPNPFFGLHASITRQDHKDLPIGGWYADQKMTRTEALRSFTIDAAYAGHQEKLIGSLEAGKKADFILLADDLLTMPESTIWQSQVSQTWVAGKKVFSAIDVPSVE	not soluble
QPLGGESICSARAPAKYSITFTGKWSQTAFPKQYPLFRPPAQWSSLLGAAHSSDYSMWRKNQYVSNGLRDFAERGEAWALMKEIEAAGEALQSVHEVFSAPAVPSGTGQTSAELEVQRRHSLVSFVVRIVPSPDWFVGVDSLDLCDGDRWREQAALDLYPYDAGTDSGFTFSSPNFATIPQDTVTEITSSSPSHPANSFYYPRLKALPPIARVTLLRLRQSPR	soluble
